Measured values: the supplement of paper PMC9233669
Fewer inactive variants are shown than the library holds.

How the values were obtained:
[1] = tested on: biotinyl-Phe-oxazolone; test: self-aminoacylation, catalytic enhancement (BFO) (fold over background); higher = more active; k-Seq, kA / k0A0; sequences stand for … in GGGAAUGGAUCCACAUCUACGAAUUC…UUCACUGCAGACUUGACGAAGCUG
Procedure, shortened: (§1)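 Catalytic enhancement equals the median kA over the uncatalyzed rate, the latter read from the low-activity peak of a bimodal Gaussian fit. Values of kA came from fitting each sequence's fraction reacted to a pseudo-first-order model, with 1000 bootstraps. Reacted RNA was captured with streptavidin and quantified by triplicate qPCR and Illumina sequencing after 90 minutes at room temperature with 2–1250 μM biotinyl-aminoacyl-oxazolone and 0.43 μM mutagenized RNA pools bearing a 21-nt variable region.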

[2] = tested on: biotinyl-Val-oxazolone; test: self-aminoacylation, catalytic enhancement (BVO) (fold over background); higher = more active; k-Seq, kA / k0A0; sequences stand for … in GGGAAUGGAUCCACAUCUACGAAUUC…UUCACUGCAGACUUGACGAAGCUG
Procedure, shortened: as §1

[3] = tested on: biotinyl-Trp-oxazolone; test: self-aminoacylation, catalytic enhancement (BWO) (fold over background); higher = more active; k-Seq, kA / k0A0; sequences stand for … in GGGAAUGGAUCCACAUCUACGAAUUC…UUCACUGCAGACUUGACGAAGCUG
Procedure, shortened: as §1

[4] = tested on: biotinyl-Leu-oxazolone; test: self-aminoacylation, catalytic enhancement (BLO) (fold over background); higher = more active; k-Seq, kA / k0A0; sequences stand for … in GGGAAUGGAUCCACAUCUACGAAUUC…UUCACUGCAGACUUGACGAAGCUG
Procedure, shortened: as §1

[5] = tested on: biotinyl-Ile-oxazolone; test: self-aminoacylation, catalytic enhancement (BIO) (fold over background); higher = more active; k-Seq, kA / k0A0; sequences stand for … in GGGAAUGGAUCCACAUCUACGAAUUC…UUCACUGCAGACUUGACGAAGCUG
Procedure, shortened: as §1

[6] = tested on: biotinyl-Met-oxazolone; test: self-aminoacylation, catalytic enhancement (BMO) (fold over background); higher = more active; k-Seq, kA / k0A0; sequences stand for … in GGGAAUGGAUCCACAUCUACGAAUUC…UUCACUGCAGACUUGACGAAGCUG
Procedure, shortened: as §1

Sequence	self-aminoacylation [1]	self-aminoacylation [2]	self-aminoacylation [3]	self-aminoacylation [4]	self-aminoacylation [5]	self-aminoacylation [6]
CCACACUUGAAGCAAUCGGUU [Fam1B.1 aminoacylation ribozyme variant]	0.703	1.45	2.47	1.14	1.18	1.32
CUACUUCAAACAAUCGGUUUG [Fam1A.1 aminoacylation ribozyme variant]	43.4	1.1	23.9	1.54	1.07	1.08
AAGUUUGCUAAUAGUCGCUGG [Fam3.1 aminoacylation ribozyme variant]	1.72	1.25	1.18	0.78	1.21	1.67
CUACUUCAAAGAAUCGGUCUG [Fam1A.1 aminoacylation ribozyme variant]	6.52	0.76	4.78	0.883	0.777	0.759
AAGUUUGCUUAUAGUCGCAUG [Fam3.1 aminoacylation ribozyme variant]	1.33	0.999	0.976	0.926	0.918	0.857
AGUACCCUGGUAAUCGAGUGA [Fam2.1 aminoacylation ribozyme variant]	47.6	3.23	8.92	8.28	3.21	7.78
AUUCACCUAGGUCAUUGCGUG [Fam2.2 aminoacylation ribozyme variant]	123	7.69	15.8	21.7	8.82	15.7
CUACAUCAAACGAUCGGUCUG [Fam1A.1 aminoacylation ribozyme variant]	0.836	0.93	0.778	0.78	0.728	0.657
CCACACUUCAAGCAAUCACUC [Fam1B.1 aminoacylation ribozyme variant]	0.957	0.669	0.564	0.43	0.591	0.509
CUACUUCCAACAAUCUGUCUG [Fam1A.1 aminoacylation ribozyme variant]	0.746	0.757	0.438	0.59	0.776	0.488
AUUACCCUGCUCAUCGAGGGA [Fam2.1 aminoacylation ribozyme variant]	0.691	0.905	0.707	0.858	1.02	0.947
AUUCACUUAGGUCAUCGGGUU [Fam2.2 aminoacylation ribozyme variant]	6.63	1.65	1.47	1.69	1.59	1.78
CCUCACUUCAAGCAUUCGGUC [Fam1B.1 aminoacylation ribozyme variant]	1.36	1.43	1.37	1.16	1.3	1.14
AUUACCCUGGUCAUCCUGUGA [Fam2.1 aminoacylation ribozyme variant]	2.81	1.07	1.52	1.71	1.51	1.39
AUUCACCUAGGUCGUUGGGUG [Fam2.2 aminoacylation ribozyme variant]	3.95	1.2	1.23	1.52	1.35	1.42
AUUACCCUGGUCAUCAGGUGA [Fam2.1 aminoacylation ribozyme variant]	29.8	3.03	5.53	4.45	2.6	5.07
AUUACCCGGGUCAUCGACUGA [Fam2.1 aminoacylation ribozyme variant]	0.62	0.837	0.755	0.675	0.845	0.768
CUACUUCCAACUAUCGGUCUG [Fam1A.1 aminoacylation ribozyme variant]	1.08	0.92	0.744	0.942	0.81	0.833
CUACUUCAAGCAAUCGGACUG [Fam1A.1 aminoacylation ribozyme variant]	4.71	0.861	2.58	1.04	0.86	0.714
AUUACACUGCUCAUCGAGUGA [Fam2.1 aminoacylation ribozyme variant]	1.51	1.61	2.31	1.72	1.55	1.8
AUUCACCUAGGCCAUGGGGUG [Fam2.2 aminoacylation ribozyme variant]	42.5	3.87	6.1	10.2	4.58	8.03
AUUCACCUGGGUCAUCGAGUG [Fam2.2 aminoacylation ribozyme variant]	3.55	2.59	3.74	4.18	2.4	3.54
CCACACUUCAAGAAAUCGGCC [Fam1B.1 aminoacylation ribozyme variant]	3.48	2.16	3.06	1.78	1.96	1.97
UUUACCCUCGUCAUCGAGUGA [Fam2.1 aminoacylation ribozyme variant]	10.2	2.35	4.02	2.68	2.46	3.25
AUUCACGUCGGUCAUCGGGUG [Fam2.2 aminoacylation ribozyme variant]	54.3	5.95	6.46	5.21	3.75	5.7
CGCCUUCAAACAAUCGGUCUG [Fam1A.1 aminoacylation ribozyme variant]	146	1.8	55.5	3.13	1.59	1.94
